The source of these data is publication PMC3874162 (Nucleic Acids Research, 2013).

Usually Kd stands for the equilibrium constant for the complex coming apart. A low value points to a tighter complex.

Substitutions are numbered along the chain they refer to.

One series concerns the target T1, Cdc13-MOB (Saccharomyces cerevisiae, UniProt P32797 344-496).
T1 sequence: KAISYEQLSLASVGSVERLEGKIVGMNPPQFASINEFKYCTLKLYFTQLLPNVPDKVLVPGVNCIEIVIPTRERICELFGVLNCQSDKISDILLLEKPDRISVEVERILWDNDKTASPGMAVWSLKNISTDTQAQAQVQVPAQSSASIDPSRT

The next series has as its target T2, Cdc13-L91R (Saccharomyces cerevisiae, UniProt P32797 1-924, L91R).
T2 sequence: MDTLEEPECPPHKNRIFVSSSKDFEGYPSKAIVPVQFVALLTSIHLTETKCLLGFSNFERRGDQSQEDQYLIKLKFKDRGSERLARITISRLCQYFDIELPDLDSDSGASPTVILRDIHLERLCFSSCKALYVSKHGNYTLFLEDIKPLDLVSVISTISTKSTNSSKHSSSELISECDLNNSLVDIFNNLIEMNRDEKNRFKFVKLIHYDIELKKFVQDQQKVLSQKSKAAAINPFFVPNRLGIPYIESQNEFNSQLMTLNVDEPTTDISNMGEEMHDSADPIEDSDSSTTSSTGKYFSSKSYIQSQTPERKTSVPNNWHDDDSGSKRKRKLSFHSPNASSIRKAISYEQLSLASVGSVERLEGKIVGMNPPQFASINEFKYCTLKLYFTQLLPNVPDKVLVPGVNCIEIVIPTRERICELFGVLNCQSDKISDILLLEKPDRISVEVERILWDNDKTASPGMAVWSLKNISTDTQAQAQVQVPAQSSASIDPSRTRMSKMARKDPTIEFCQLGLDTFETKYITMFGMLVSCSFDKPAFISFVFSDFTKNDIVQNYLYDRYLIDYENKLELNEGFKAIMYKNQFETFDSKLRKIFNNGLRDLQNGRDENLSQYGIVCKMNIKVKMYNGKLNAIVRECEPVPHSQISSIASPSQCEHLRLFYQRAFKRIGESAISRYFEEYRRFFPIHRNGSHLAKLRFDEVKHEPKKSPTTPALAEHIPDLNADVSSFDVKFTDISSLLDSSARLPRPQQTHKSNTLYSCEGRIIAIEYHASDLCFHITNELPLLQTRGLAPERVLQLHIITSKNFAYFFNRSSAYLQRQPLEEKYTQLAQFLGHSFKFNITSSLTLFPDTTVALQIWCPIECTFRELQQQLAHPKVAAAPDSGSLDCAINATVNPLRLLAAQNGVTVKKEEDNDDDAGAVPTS
Kind of series: filter binding.

The next series concerns the target T3, Cdc13-DBD (Saccharomyces cerevisiae, UniProt P32797 497-694).
T3 sequence: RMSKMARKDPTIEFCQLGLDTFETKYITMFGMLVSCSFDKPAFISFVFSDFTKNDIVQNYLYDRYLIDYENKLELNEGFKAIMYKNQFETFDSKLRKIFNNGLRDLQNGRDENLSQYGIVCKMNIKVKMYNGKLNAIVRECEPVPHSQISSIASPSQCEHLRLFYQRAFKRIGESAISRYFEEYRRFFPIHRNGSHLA
Briefly: filter binding.

Series [1] has as its target T4, Cdc13 (Saccharomyces cerevisiae, UniProt P32797 1-924).
T4 sequence: T2 sequence with R91L
Briefly: filter binding.

The target in series [2] is T4, Cdc13. Briefly: EMSA. On the technique in general: In EMSA bound probe runs differently from free probe, usually more slowly.

GTGTGGGTGTG (ssDNA) [Tel11]: the binding result in the series with Cdc13-MOB is recorded as “no binding”. For the same molecule, the Kd with Cdc13-L91R amounted to 0.22 ± 0.05 nM; with Cdc13-DBD, 0.21 ± 0.02 nM; with Cdc13 [1] it was 0.41 ± 0.04 nM; with Cdc13 [2], 0.0134 ± 0.0004 nM.
